Measured values published in patent US20260347464 (published 2026).

Columns and labels:
HuCD100 (cell surface) [1] = target: T1, HuCD100 (cell surface) (human, UniProt Q92854); assay: FACS, HuPBMC
MusCD100-His = target: T2, MusCD100-His (mouse, UniProt O09126); assay: ELISA
T2 chain: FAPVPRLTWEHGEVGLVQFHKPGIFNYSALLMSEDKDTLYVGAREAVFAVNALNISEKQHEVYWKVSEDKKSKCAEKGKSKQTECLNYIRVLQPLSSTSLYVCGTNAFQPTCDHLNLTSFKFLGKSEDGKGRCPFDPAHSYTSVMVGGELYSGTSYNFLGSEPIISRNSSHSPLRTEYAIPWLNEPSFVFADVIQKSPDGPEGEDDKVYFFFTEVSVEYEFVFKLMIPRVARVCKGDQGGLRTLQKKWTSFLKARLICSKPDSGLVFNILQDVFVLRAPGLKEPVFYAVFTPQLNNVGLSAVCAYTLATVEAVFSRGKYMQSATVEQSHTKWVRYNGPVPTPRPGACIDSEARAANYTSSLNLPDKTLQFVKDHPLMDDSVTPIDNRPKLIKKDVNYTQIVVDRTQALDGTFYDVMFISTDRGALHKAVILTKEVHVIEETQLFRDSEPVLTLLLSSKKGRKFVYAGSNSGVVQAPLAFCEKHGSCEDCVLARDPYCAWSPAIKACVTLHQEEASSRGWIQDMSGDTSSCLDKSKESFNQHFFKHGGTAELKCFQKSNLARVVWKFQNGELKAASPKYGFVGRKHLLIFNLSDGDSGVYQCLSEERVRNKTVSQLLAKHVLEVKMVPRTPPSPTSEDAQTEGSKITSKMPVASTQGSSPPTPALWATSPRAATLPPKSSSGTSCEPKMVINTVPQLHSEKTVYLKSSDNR

HuCD100 (cell surface) [2] = target: T1, HuCD100 (cell surface); assay: FACS, Jurkat
HuCD100-His = HuCD100-His (human, UniProt Q92854); assay: ELISA
HuCD100 (cell surface) [3] = target: T1, HuCD100 (cell surface); assay: FACS, HEK293
MusCD100 (cell surface) = target: T3, MusCD100 (cell surface) (mouse, UniProt O09126); assay: FACS, HEK293
T3 chain: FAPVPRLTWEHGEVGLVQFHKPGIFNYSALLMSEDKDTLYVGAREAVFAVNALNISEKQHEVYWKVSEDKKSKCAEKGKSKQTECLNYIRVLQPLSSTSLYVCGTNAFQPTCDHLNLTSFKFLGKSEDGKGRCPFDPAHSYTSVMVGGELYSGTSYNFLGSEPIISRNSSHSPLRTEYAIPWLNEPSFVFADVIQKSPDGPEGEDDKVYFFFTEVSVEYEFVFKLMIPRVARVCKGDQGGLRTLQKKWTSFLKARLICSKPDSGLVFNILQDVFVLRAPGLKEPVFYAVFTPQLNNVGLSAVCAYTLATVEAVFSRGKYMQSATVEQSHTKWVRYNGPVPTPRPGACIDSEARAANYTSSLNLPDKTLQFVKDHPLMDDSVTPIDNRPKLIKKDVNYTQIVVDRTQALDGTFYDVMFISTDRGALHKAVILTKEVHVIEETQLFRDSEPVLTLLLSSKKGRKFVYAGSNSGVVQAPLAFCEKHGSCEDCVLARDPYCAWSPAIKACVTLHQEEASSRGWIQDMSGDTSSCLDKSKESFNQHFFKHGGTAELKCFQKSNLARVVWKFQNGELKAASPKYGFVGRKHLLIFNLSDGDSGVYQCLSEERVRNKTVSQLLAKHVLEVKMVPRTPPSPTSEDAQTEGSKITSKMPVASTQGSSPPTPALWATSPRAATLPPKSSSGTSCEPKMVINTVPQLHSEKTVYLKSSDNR

Chain of HuCD100-His (Q92854 22-734): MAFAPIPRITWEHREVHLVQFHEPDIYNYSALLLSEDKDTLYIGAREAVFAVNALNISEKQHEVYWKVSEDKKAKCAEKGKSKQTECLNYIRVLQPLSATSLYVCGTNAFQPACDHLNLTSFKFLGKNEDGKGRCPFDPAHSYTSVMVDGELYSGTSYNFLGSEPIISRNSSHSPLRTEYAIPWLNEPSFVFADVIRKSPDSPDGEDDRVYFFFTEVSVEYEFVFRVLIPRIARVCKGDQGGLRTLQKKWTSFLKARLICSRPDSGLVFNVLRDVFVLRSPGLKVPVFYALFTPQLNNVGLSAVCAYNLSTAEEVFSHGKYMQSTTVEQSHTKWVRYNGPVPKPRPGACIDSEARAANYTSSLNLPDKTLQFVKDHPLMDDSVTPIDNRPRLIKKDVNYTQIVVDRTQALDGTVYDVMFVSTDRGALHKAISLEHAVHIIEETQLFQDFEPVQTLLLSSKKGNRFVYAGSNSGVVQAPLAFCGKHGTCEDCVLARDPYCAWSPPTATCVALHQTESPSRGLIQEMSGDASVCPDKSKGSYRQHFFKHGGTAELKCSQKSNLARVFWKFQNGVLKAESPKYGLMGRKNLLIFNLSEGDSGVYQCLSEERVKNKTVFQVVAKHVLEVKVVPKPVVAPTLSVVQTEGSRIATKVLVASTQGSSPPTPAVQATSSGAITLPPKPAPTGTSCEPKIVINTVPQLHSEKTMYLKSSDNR
T1 sequence (Q92854 22-734): as above

Binder	EC50 (HuCD100 (cell surface) [1])	EC50 (MusCD100-His)	EC50 (HuCD100 (cell surface) [2])	EC50 (HuCD100-His)	EC50 (HuCD100 (cell surface) [3])	EC50 (MusCD100 (cell surface))
H74 (antibody, V domains shown) VH: QVQLQQWGAGLLKPSETLSLTCAVYGGSFSGYYWSWIRQPPGKGLEWIGEINHSGSTNYNPSLKSRVTISVDTSKNQFSLKLSSVTAADTAVYYCAGTRWLQFPLNYWGQGTLVTVSS VL: SYVLTQPPSVSVSPGQTASITCSGDKLGDKYAYWYQQKPGQSPVLVLYQDAKRPSGIPERFSGSNSGNTATLTISGTQAMDEADYYCQAWDSSTAGYVFGTGTKVTVL	0.00828 µg/mL	0.00478 µg/mL	0.0138 µg/mL	0.00467 µg/mL	0.0274 µg/mL	0.05 µg/mL
B13 (antibody, V domains shown) VH: QVQLQQWGAGLLKPSETLSLTCAISSGSFSGYYWTWIRQPPGKGLEWIGETNHNGFTTYNTSLKSRITISIDASKNQFYLNLSSVTAADTATYFCARGPAYYADALDGFDIWGQGTMVTVSS VL: QSVLTQPPSVSVSPGQTASITCSGDKLGDKYVSWYQQKPGQSPVLVIYQDNKRPSGIPERFSGSNSGNTATLTISGTQAMDEADYYCQAWDSSTKAYVFGAGTKVTVL	0.0109 µg/mL	0.00842 µg/mL	0.0185 µg/mL	0.00733 µg/mL	0.0346 µg/mL	0.0697 µg/mL
H12 (antibody, V domains shown) VH: QVQLQESGPGLVKPSGTLSLTCAVSGGSISSSNWWSWVRQPPGKGLEWIGEIYHSGSTNYNPSLKSRVTISVDKSKNQFSLKLSSVTAADTAVYYCARFVSSGYLGAFDIWGQGTMVTVSS VL: QSVLTQPPSVSVSPGQTASITCSGDRLGDKYSYWYQQKPGQSPVLVIYQDSKRPSGIPERFSGSNSGNTATLTISGTQAMDEADYYCQVWDSSTAVFGGGTKLTVL	0.0177 µg/mL	0.0112 µg/mL	0.028 µg/mL	0.0113 µg/mL	0.0369 µg/mL	0.0758 µg/mL
H5 (antibody, V domains shown) VH: QLQLQESGPGLVKPPGTLSLTCAVSGGSISSSNWWSWVRQPPGKGLEWIGEIYHSGSTNYNPSLKSRVTISVDTSKNQFSLKLSSVTAADTAVYYCAVYDFWSGSGLDYWGQGTLVTVSS VL: SYVLTQPPSVSVSPGQTASITCSGDKLGDKFASWYQQKPGQSPVLVIYQDRKRPSRIPERFSGSNSGNTATLTITGTQTIDEADYYCQAWDSGTVIFGGGTKLTVL	0.0132 µg/mL	0.00722 µg/mL	0.0184 µg/mL	0.00639 µg/mL	0.0288 µg/mL	0.0606 µg/mL
A14 (antibody, V domains shown) VH: ETQLVESGGGLVQPGGSLRLSCAASGFPFSSYEMNWVRQAPGKGLEWVAEISSSGSTIYYADSVKGRFTISRDNAKKSLYLQMNSLRAEDTAVYYCARGRFEGYCSSTNCHTGAFDFWGQGTMVTVSS VL: not shown	0.0145 µg/mL	0.00792 µg/mL	0.0195 µg/mL	0.00613 µg/mL	0.0277 µg/mL	0.0599 µg/mL
H21 (antibody, V domains shown) VH: EVQLVQSGGGLVQPGRSLRLSCAASGFTFDDYAMHWVRQAPGKGLEWVSGISWNSGSIGYADSVKGRFTISRDNAKNSLYLQMNSLRAEDTALYYCAKDIGGSYFDYYYYGMDVWGQGTLVTVSS VL: EIVLTQSPATLSLSPGERATLSCRTSHNVNTYIAWYQQKPGQAPRLLFYDSSTRLPDTPARFSGSGSGTDFTLTISSLEPEDFAVYYCQQRTSWPLTFGGGTKVEIK	0.0154 µg/mL	0.00686 µg/mL	0.0258 µg/mL	0.00595 µg/mL	0.0374 µg/mL	0.0814 µg/mL
A15 (antibody, V domains shown) VH: EVQLLESGGGLIQPGGSLRLSCAASGFTVSSNYMSWVRQAPGKGLEWVSVIYSGGSTYYADSVKGRFTISRDNSKNTLYLQMNSLRAEDTAVYYCAREVEGGMDVWGQGTTVTVSS VL: SYVLTQPPSVSVSPGQTASIICSGDKLGDKYVYWYQQKSGQSPVLVIYQDRKRPSGIPERFSGSNSGNTASLAISGLQSEDEADYYCAAWDDSLNGWVFGGGTKLTVL	0.00589 µg/mL	0.0101 µg/mL	0.00851 µg/mL	0.0076 µg/mL	0.0269 µg/mL	0.0548 µg/mL

Results, then the binder that gave them:

EC50 (HuCD100 (cell surface) [1])	EC50 (MusCD100-His)	EC50 (HuCD100 (cell surface) [2])	EC50 (HuCD100-His)	EC50 (HuCD100 (cell surface) [3])	EC50 (MusCD100 (cell surface))	Binder
0.0859 µg/mL	0.031 µg/mL	0.449 µg/mL	0.0107 µg/mL	0.167 µg/mL	0.31 µg/mL	C-C171 (antibody, V domains shown) VH: QVQLQESGPGLVKPSGTLSLSCTVSGGSMSSNYLWSWVRQTPGKGLQWIGDIFHSGRTYYNPSLKRRVTISVDKSKNQFSLKLSSVTAADTAVYYCARQGWTTPFDYWGQGTPVTVSS VL: DIQLTQSPSSVSASVGDRVTITCRASQGISSWLAWYQQKPGKAPKLLIYAASSLQSGVPSRFSGSGSGTDFTLTISSLQPEDFATYYCLQDVYYPWTFGQGTTVEIK
0.0104 µg/mL	0.0109 µg/mL	0.0162 µg/mL	0.00968 µg/mL	0.0225 µg/mL	0.0504 µg/mL	H96 (antibody, V domains shown) VH: QVQLQQWGAGLLKPSETLSLTCAVYGGSFSGYYWSWIRQPPGKGLEWIGEINHSGSTNYNPSLKSRVTISVDTSKNQFSLKLSSVTAADTAVYYCARESNSYGYGTDYWGQGTLVTVSS VL: QSALTQPPSVSVSPGQTATITCSGDKLGEKYAFWYQQKPGQSPVLVIYQDNKRPSGIPERFTGSNSGNTATLTIFGTQTMDEADYYCQAWDSSTYVFGTGTKVTVL
0.0194 µg/mL	0.0541 µg/mL	0.73 µg/mL	0.0141 µg/mL	0.0927 µg/mL	0.185 µg/mL	C-C081 (antibody, V domains shown) VH: QVQLLESGGGLVKPGGSLRLSCAASGFTFSSYSMNWVRQAPGKGLEWVSSISSSSSYIYYADSVKGRFTISRDNAKNSLYLQMNSLRAEDTAVYYCARDHYPGPDAFDVWGQGTMVTVSS VL: not shown
0.177 µg/mL	0.00936 µg/mL	0.108 µg/mL	0.0119 µg/mL	0.0879 µg/mL	0.118 µg/mL	C-B71 (antibody, V domains shown) VH: QVQLQESGPGLVKPSQTLSLTCTVSGGSISSGGYYWSWIRQHPGKGLEWIGYIYYSGSTYYNPSLKSRVTISVDTSKNQFSLKLSSVTAADTAVYYCAREGVAAAGIDYWGQGTPVTVSS VL: NIQLTQSPSSVSASVGDRVTITCRASQGISSWLAWYQQKPGKAPKLLISTASSVQSGVPTRFSASGSGTDFTLTISSLQPEDFATYYCQQGYRTPWTFGQGTKVEIK
